{"source": "paper PMC5190064", "target": "integrin αvβ3 expressed on primary human brain endothelial cells (ECs) (human (endogenous in primary brain ECs)) (UniProt P06756)", "sequence (P06756 31-1048, chain 1 of 2)": "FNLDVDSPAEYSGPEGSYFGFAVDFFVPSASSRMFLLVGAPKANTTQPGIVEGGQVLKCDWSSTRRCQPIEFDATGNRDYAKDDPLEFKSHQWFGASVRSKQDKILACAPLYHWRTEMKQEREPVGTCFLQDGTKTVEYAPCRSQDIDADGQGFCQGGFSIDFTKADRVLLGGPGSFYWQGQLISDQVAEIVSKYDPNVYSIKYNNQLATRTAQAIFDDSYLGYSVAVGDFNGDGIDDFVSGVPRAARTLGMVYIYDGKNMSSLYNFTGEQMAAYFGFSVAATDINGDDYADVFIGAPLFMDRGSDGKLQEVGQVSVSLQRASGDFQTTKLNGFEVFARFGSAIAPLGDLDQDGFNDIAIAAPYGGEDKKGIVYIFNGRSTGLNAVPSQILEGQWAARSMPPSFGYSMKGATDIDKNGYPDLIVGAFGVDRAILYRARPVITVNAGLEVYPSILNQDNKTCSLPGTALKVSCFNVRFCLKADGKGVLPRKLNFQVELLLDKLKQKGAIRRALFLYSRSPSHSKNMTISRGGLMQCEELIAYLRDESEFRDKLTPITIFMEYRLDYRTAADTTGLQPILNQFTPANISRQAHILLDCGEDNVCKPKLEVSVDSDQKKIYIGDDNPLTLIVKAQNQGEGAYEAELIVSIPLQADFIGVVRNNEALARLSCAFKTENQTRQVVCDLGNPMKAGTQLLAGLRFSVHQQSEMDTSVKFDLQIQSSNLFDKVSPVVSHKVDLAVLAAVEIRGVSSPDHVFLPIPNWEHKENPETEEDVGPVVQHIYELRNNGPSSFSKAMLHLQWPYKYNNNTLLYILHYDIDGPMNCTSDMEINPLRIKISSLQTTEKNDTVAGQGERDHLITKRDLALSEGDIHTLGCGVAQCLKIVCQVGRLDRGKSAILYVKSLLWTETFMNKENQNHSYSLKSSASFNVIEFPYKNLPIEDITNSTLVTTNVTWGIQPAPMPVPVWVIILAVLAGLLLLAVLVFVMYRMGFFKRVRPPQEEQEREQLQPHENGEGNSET", "sequence (P05106 27-788, chain 2 of 2, further chain)": "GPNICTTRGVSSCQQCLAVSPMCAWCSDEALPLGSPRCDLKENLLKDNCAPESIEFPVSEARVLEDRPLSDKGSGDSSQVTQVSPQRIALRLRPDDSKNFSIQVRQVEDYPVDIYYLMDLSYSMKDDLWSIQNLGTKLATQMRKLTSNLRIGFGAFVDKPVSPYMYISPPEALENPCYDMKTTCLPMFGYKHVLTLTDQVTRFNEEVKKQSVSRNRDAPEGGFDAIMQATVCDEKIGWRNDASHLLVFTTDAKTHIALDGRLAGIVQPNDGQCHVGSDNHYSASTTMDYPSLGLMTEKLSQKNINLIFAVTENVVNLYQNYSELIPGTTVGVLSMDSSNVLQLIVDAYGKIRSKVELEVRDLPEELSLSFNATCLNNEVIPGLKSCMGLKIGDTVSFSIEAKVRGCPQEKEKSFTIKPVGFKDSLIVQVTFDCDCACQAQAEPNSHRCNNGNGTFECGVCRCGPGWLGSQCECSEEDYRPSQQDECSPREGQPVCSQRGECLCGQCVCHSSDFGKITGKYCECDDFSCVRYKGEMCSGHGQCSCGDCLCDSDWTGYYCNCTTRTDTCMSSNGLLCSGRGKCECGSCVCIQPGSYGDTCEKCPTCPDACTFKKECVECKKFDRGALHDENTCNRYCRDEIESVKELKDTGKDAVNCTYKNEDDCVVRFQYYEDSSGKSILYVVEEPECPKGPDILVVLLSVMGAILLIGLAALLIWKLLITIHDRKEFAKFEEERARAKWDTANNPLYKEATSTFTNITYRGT", "data": [{"substance": "L1CAM expressed on cancer stem-like cells (CSCs) from glioblastoma (from UniProt P32004 20-1257) (receptor)", "values": [{"measurement": "cell-cell adhesion of GFP-CSCs (08387) to a confluent EC monolayer after pre-incubation of ECs with a neutralizing antibody to integrin αvβ3; percent reduction of CSC adhesion", "result": 43, "unit": "%"}]}]}
